Publication PMC8092228 (mBio, 2021)

Target: LOV construct of Brucella abortus LOV-HK with the Nα helix, the LOV core and half of the Jα helix (wild type) (Brucella abortus)
Test: SEC with static light scattering (SEC-SLS)

## LOV construct of Brucella abortus LOV-HK with the Nα helix, the LOV core and half of the Jα helix (wild type) (domain or fragment)
  stoichiometry N: 2
